# Reference: patent US20240117018A1
# Legend:
# Assay in all cases: cell-based or functional assay
# [1] = biological target: HIV-1 Env pseudovirus 1012_11_TC21_3257 (HIV-1)
# [2] = biological target: HIV-1 Env pseudovirus Ce0393_C3 (HIV-1)
# [3] = biological target: HIV-1 Env pseudovirus 1006_11_C3_1601 (HIV-1)
# [4] = biological target: HIV-1 Env pseudovirus Ce2010_F5 (HIV-1)
# [5] = biological target: HIV-1 Env pseudovirus WEAU_d15_410_787 (HIV-1)
# [6] = biological target: HIV-1 Env pseudovirus Du172.17 (HIV-1)
# [7] = biological target: HIV-1 Env pseudovirus ZM109F.PB4 (HIV-1)
# [8] = biological target: HIV-1 Env pseudovirus RHPA4259.7 (HIV-1)
# [9] = biological target: HIV-1 Env pseudovirus SC05_8C11_2344 (HIV-1)
# [10] = biological target: HIV-1 Env pseudovirus AC10.0.29 (HIV-1)
# [11] = biological target: HIV-1 Env pseudovirus REJO4541.67 (HIV-1)
# [12] = biological target: HIV-1 Env pseudovirus CNE52 (HIV-1)
# [13] = biological target: HIV-1 Env pseudovirus Q23.17 (HIV-1)
# [14] = biological target: HIV-1 Env pseudovirus 6244_13_B5_4576 (HIV-1)
# [15] = biological target: HIV-1 Env pseudovirus CNE58 (HIV-1)
# [16] = biological target: HIV-1 Env pseudovirus CAP45.2.00.G3 (HIV-1)
# [17] = biological target: Env of HIV-1 pseudovirus QH0692.42 (HIV-1)
# [18] = biological target: Env of HIV-1 pseudovirus 263-8 (HIV-1)
# [19] = biological target: Env of HIV-1 pseudovirus 249M B10 (HIV-1)
# [20] = biological target: Env of HIV-1 pseudovirus Q461.e2 (HIV-1)
# [21] = biological target: Env of HIV-1 pseudovirus Ce1172_H1 (HIV-1)
# [22] = biological target: Env of HIV-1 pseudovirus Du422.1 (HIV-1)
# [23] = biological target: Env of HIV-1 pseudovirus CNE53 (HIV-1)
# [24] = biological target: Env of HIV-1 pseudovirus ZM53M.PB12 (HIV-1)
# [25] = biological target: Env of HIV-1 pseudovirus Q842.d12 (HIV-1)
# [26] = biological target: Env of HIV-1 pseudovirus CNE20 (HIV-1)
# [27] = biological target: Env of HIV-1 pseudovirus Ce1086_B2 (HIV-1)
# [28] = biological target: Env of HIV-1 pseudovirus Du172.17 (HIV-1)
# [29] = biological target: Env of HIV-1 pseudovirus 191955_A11 (HIV-1)
substance,measurement,setting,value
N49P11 (antibody),IC50,[1],10.6 µg/mL
same,IC80,[1],29.3 µg/mL
same,MPI,[1],100
same,IC50,[2],1.51 µg/mL
same,IC80,[2],9.71 µg/mL
same,MPI,[2],100
same,IC50,[3],0.125 µg/mL
same,IC80,[3],0.487 µg/mL
same,MPI,[3],100
same,IC50,[4],0.38 µg/mL
same,IC80,[4],3.27 µg/mL
same,MPI,[4],100
same,IC50,[5],1.7 µg/mL
same,IC80,[5],6.02 µg/mL
same,MPI,[5],100
same,IC50,[6],5.65 µg/mL
same,IC80,[6],17.9 µg/mL
same,MPI,[6],100
same,IC50,[7],5.2 µg/mL
same,IC80,[7],19.4 µg/mL
same,MPI,[7],100
same,IC50,[8],0.202 µg/mL
same,IC80,[8],0.956 µg/mL
same,MPI,[8],100
same,IC50,[9],5.42 µg/mL
same,IC80,[9],20.5 µg/mL
same,MPI,[9],100
same,IC50,[10],5.52 µg/mL
same,IC80,[10],20 µg/mL
same,MPI,[10],100
same,IC50,[11],10.8 µg/mL
same,IC80,[11],27.1 µg/mL
same,MPI,[11],100
same,IC50,[12],0.06 µg/mL
same,IC80,[12],0.307 µg/mL
same,MPI,[12],100
same,IC50,[13],0.034 µg/mL
same,IC80,[13],0.254 µg/mL
same,MPI,[13],100
same,IC50,[14],1.12 µg/mL
same,IC80,[14],5.45 µg/mL
same,MPI,[14],100
same,IC50,[15],0.038 µg/mL
same,IC80,[15],0.135 µg/mL
same,MPI,[15],100
same,IC50,[16],5.25 µg/mL
same,IC80,[16],24 µg/mL
same,MPI,[16],100
10E8 (antibody),IC50,[17],0.442 µg/mL
same,IC80,[17],4.05 µg/mL
same,IC50,[18],0.196 µg/mL
same,IC80,[18],1.73 µg/mL
same,IC50,[19],1.27 µg/mL
same,IC80,[19],9.05 µg/mL
same,IC50,[20],2.11 µg/mL
same,IC80,[20],> 10 µg/mL
same,IC50,[21],0.722 µg/mL
same,IC80,[21],4.82 µg/mL
same,IC50,[22],0.351 µg/mL
same,IC80,[22],1.88 µg/mL
same,IC50,[23],0.326 µg/mL
same,IC80,[23],1.92 µg/mL
same,IC50,[24],3.98 µg/mL
same,IC80,[24],> 10 µg/mL
same,IC50,[25],4.19 µg/mL
same,IC80,[25],> 10 µg/mL
same,IC50,[26],1.25 µg/mL
same,IC80,[26],6.58 µg/mL
same,IC50,[27],1.16 µg/mL
same,IC80,[27],6.93 µg/mL
same,IC50,[28],0.109 µg/mL
same,IC80,[28],0.837 µg/mL
same,IC50,[29],0.68 µg/mL
same,IC80,[29],3.53 µg/mL
10-1074 (antibody),IC50,[17],0.191 µg/mL
same,IC80,[17],0.929 µg/mL
same,IC50,[18],0.666 µg/mL
same,IC80,[18],6.53 µg/mL
same,IC50,[19],> 50 µg/mL
same,IC80,[19],> 50 µg/mL
same,IC50,[20],> 50 µg/mL
same,IC80,[20],> 50 µg/mL
same,IC50,[21],0.047 µg/mL
same,IC80,[21],0.166 µg/mL
same,IC50,[22],0.045 µg/mL
same,IC80,[22],0.166 µg/mL
same,IC50,[23],0.039 µg/mL
same,IC80,[23],0.141 µg/mL
same,IC50,[24],> 50 µg/mL
same,IC80,[24],> 50 µg/mL
same,IC50,[25],> 50 µg/mL
same,IC80,[25],> 50 µg/mL
same,IC50,[26],< 0.001 µg/mL
same,IC80,[26],0.005 µg/mL
same,IC50,[27],> 50 µg/mL
same,IC80,[27],> 50 µg/mL
same,IC50,[28],0.121 µg/mL
same,IC80,[28],0.43 µg/mL
same,IC50,[29],> 50 µg/mL
same,IC80,[29],> 50 µg/mL
N49P7.2 (antibody),IC50,[1],0.06 µg/mL
same,IC80,[1],0.285 µg/mL
same,MPI,[1],100
same,IC50,[2],0.137 µg/mL
same,IC80,[2],0.368 µg/mL
same,MPI,[2],100
same,IC50,[3],0.085 µg/mL
same,IC80,[3],0.237 µg/mL
same,MPI,[3],100
same,IC50,[4],0.398 µg/mL
same,IC80,[4],1.29 µg/mL
same,MPI,[4],100
same,IC50,[5],0.052 µg/mL
same,IC80,[5],0.15 µg/mL
same,MPI,[5],100
same,IC50,[6],0.29 µg/mL
same,IC80,[6],1.08 µg/mL
same,MPI,[6],100
same,IC50,[7],0.065 µg/mL
same,IC80,[7],0.321 µg/mL
same,MPI,[7],99
same,IC50,[8],0.1 µg/mL
same,IC80,[8],0.289 µg/mL
same,MPI,[8],100
same,IC50,[9],0.326 µg/mL
same,IC80,[9],1.14 µg/mL
same,MPI,[9],100
same,IC50,[10],44.2 µg/mL
same,IC80,[10],> 50 µg/mL
same,MPI,[10],53
same,IC50,[11],0.018 µg/mL
same,IC80,[11],0.08 µg/mL
same,MPI,[11],100
same,IC50,[12],0.03 µg/mL
same,IC80,[12],0.088 µg/mL
same,MPI,[12],100
same,IC50,[13],0.051 µg/mL
same,IC80,[13],0.2 µg/mL
same,MPI,[13],100
same,IC50,[14],0.331 µg/mL
same,IC80,[14],1.04 µg/mL
same,MPI,[14],100
same,IC50,[15],0.045 µg/mL
same,IC80,[15],0.129 µg/mL
same,MPI,[15],100
same,IC50,[16],0.162 µg/mL
same,IC80,[16],2.49 µg/mL
same,MPI,[16],95
PG9 (antibody),IC50,[17],> 50 µg/mL
same,IC80,[17],> 50 µg/mL
same,IC50,[18],0.293 µg/mL
same,IC80,[18],1.05 µg/mL
same,IC50,[19],0.095 µg/mL
same,IC80,[19],0.29 µg/mL
same,IC50,[20],1.48 µg/mL
same,IC80,[20],8.72 µg/mL
same,IC50,[21],0.07 µg/mL
same,IC80,[21],0.206 µg/mL
same,IC50,[22],0.614 µg/mL
same,IC80,[22],10.4 µg/mL
same,IC50,[23],0.131 µg/mL
same,IC80,[23],0.6 µg/mL
same,IC50,[24],0.069 µg/mL
same,IC80,[24],0.221 µg/mL
same,IC50,[25],0.023 µg/mL
same,IC80,[25],0.081 µg/mL
same,IC50,[26],0.052 µg/mL
same,IC80,[26],0.278 µg/mL
same,IC50,[27],> 50 µg/mL
same,IC80,[27],> 50 µg/mL
same,IC50,[28],0.606 µg/mL
same,IC80,[28],1.6 µg/mL
same,IC50,[29],0.053 µg/mL
same,IC80,[29],0.154 µg/mL
PG16 (antibody),IC50,[17],> 50 µg/mL
same,IC80,[17],> 50 µg/mL
same,IC50,[18],0.347 µg/mL
same,IC80,[18],4.97 µg/mL
same,IC50,[19],0.026 µg/mL
same,IC80,[19],1.25 µg/mL
same,IC50,[20],1.75 µg/mL
same,IC80,[20],> 50 µg/mL
same,IC50,[21],0.007 µg/mL
same,IC80,[21],0.037 µg/mL
same,IC50,[22],0.261 µg/mL
same,IC80,[22],33.8 µg/mL
same,IC50,[23],> 50 µg/mL
same,IC80,[23],> 50 µg/mL
same,IC50,[24],0.007 µg/mL
same,IC80,[24],0.051 µg/mL
same,IC50,[25],0.032 µg/mL
same,IC80,[25],> 0.25 µg/mL
same,IC50,[26],3.63 µg/mL
same,IC80,[26],47.2 µg/mL
same,IC50,[27],> 50 µg/mL
same,IC80,[27],> 50 µg/mL
same,IC50,[28],0.033 µg/mL
same,IC80,[28],0.213 µg/mL
same,IC50,[29],0.009 µg/mL
same,IC80,[29],0.042 µg/mL
N49P18.1 (antibody),IC50,[1],16.1 µg/mL
same,IC80,[1],> 50 µg/mL
same,MPI,[1],79
same,IC50,[2],10.3 µg/mL
same,IC80,[2],24.8 µg/mL
same,MPI,[2],92
same,IC50,[3],2.8 µg/mL
same,IC80,[3],9.66 µg/mL
same,MPI,[3],99
same,IC50,[4],29 µg/mL
same,IC80,[4],> 50 µg/mL
same,MPI,[4],68
same,IC50,[5],4.27 µg/mL
same,IC80,[5],15.5 µg/mL
same,MPI,[5],98
same,IC50,[6],6.52 µg/mL
same,IC80,[6],21.3 µg/mL
same,MPI,[6],92
same,IC50,[7],26.6 µg/mL
same,IC80,[7],> 50 µg/mL
same,MPI,[7],69
same,IC50,[8],4.34 µg/mL
same,IC80,[8],21.4 µg/mL
same,MPI,[8],98
same,IC50,[9],17.3 µg/mL
same,IC80,[9],> 50 µg/mL
same,MPI,[9],79
same,IC50,[10],20 µg/mL
same,IC80,[10],> 50 µg/mL
same,MPI,[10],71
same,IC50,[11],4.08 µg/mL
same,IC80,[11],30.1 µg/mL
same,MPI,[11],89
same,IC50,[12],2.46 µg/mL
same,IC80,[12],6.65 µg/mL
same,MPI,[12],100
same,IC50,[13],1.16 µg/mL
same,IC80,[13],6.93 µg/mL
same,MPI,[13],100
same,IC50,[14],33.4 µg/mL
same,IC80,[14],> 50 µg/mL
same,MPI,[14],61
same,IC50,[15],1.92 µg/mL
same,IC80,[15],5.26 µg/mL
same,MPI,[15],100
same,IC50,[16],5.14 µg/mL
same,IC80,[16],33.1 µg/mL
same,MPI,[16],88
